Laboratory results published in US12534533B2, “Anti-chemokine like receptor 1 humanized antibodies and their therapeutic applications” (OSE IMMUNOTHERAPEUTICS, priority 2019, dated 2026).

Assays:
[1] = system: psoriasis induced by Aldara cream; type: in vivo, mice
Protocol: FIG. 6. Effect of anti-CMKLR1 agonist on an autoimmune disease such as mice psoriasis model. Aldara treated mice for 4 to 6 consecutive days were injected intra-peritoneally with: 2G1 (●) or isotype control antibody (x). A. thicknesses and B weight.
Aldara® cream which is known to induce psoriasis in mice was used on male C57Bl/6 mice (8-10-week old). Mice received a daily topical dose of Aldara. Treatments (anti-CMKLR1 agonist or control compound) were injected intra-peritoneally: […]

4T1 cells = experiment: orthotopic mammary carcinoma model (4T1); type: in vivo, mice
Protocol: FIG. 8. Effect of an anti-CMKLR1 antibody on a 4T1 breast tumor model. Mice were inoculated with 4T1 cells (0.25 million) in the mammary gland. Then the anti-CMKLR1 antibody (2G1) (A. […]B. ●) or an anti-41BB antibody (3H3) (●) or both antibodies (▴) were injected twice at day 4 and day 7 (10 μg/injection) or a control antibody (IgG1 isotype antibody clone 3G8) (x A. and B.) was injected three time a week for three weeks. A. The tumor area was measured 8 days after tumor injection and then every 2 days. B. Tumor lung metastasis was measured by Bioluminescence imaging (BLI) in animals treated with isotype control and anti-CMKLR1 antibody (n=4).
Mice were anesthetized with 3% of isoflurane. Mice were shaved on the abdomen and 4T1 cells (0.25 millions) were injected in the mammary gland with an insulinic syringe (30 Gauges) in 50 μL of PBS. The anti-CMKLR1 antibody (2G1) or an anti-41BB antibody (3H3) or both antibodies were injected twice at day 4 and day 7 (10 μg/injection); a control antibody was injected three times a week for three weeks intraperitoneally in PBS (100 μg/injection). In a second study to measure the lung metastasis following mammary carcinoma development, animals were treated with anti-CMKLR1 antibody at 0.8 mg/kg or control antibody (100 μg/injection) three times a week for three weeks.

[2] = target: T1, CMKLR1 receptor (CHO-K1 CMKLR1 Gi cells) (Homo sapiens, UniProt Q99788); experiment: competition with Chemerin in the production of cAMP by CMKLR1 receptor; type: cell-based; conditions: antibody 1 μM to 1 nM, chemerin 2 nM; FIG. 18A
T1 construct: host or cells: CHO-K1
T1 sequence (Q99788 1-373): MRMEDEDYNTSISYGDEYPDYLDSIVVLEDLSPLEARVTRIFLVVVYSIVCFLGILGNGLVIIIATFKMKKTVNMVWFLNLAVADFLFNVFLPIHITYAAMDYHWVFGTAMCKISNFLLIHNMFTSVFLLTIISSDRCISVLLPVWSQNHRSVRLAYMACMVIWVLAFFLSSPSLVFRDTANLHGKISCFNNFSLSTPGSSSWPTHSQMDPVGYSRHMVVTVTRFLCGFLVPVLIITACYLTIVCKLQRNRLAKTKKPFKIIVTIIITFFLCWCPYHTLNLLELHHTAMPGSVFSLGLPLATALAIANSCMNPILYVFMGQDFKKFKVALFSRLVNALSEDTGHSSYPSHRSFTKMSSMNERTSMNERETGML
Protocol: The day before the experiment CHO-K1 CMKLR1 Gi cells (Discover'X ref 95-0080C2) were plated in pre-warmed cell reagent then plated in a 96-well plate at 100 μl/well of cells as (Discover'X ref 15-103) and incubated 24 hours at 37° C., in a 5% CO2 humidified incubator for 24 hours.
For the detection cAMP, antibody reagent and cAMP working detection solution was added to the plate for 1 hour at room temperature, then cAMP solution A was added, and cells incubated 3 hours at room temperature in the dark. Bioluminescence was read with a plate reader with 0.5s integration.

[3] = system: CCR7 expression at the surface of pro-inflammatory macrophages M1; experiment: CCR7 expression on M1 macrophages with coated antibodies; type: cell-based, human; conditions: antibody coated on plate, 48 h, flow cytometry; vs isotype control; FIG. 25, FIG. 35
Protocol: FIG. 25. Inhibition of CCR7 expression on M1 macrophages cells in vitro with anti-ChemR23 antibodies coated. 2G1 and all humanized 2G1 variants (HALA, HCLC, HCLD, HDLC and HDLD) were immobilized on plate. Isotype control were added as controls. Two isotypes which prevent FcRγ binding, i.e., 2G1-N297A (2G1 wt mutated in N297A to reduce FcγR binding), and 2G4 (wt with isotype IgG4mutated in S228P to stabilise hinge region) were also added. Pro-inflammatory macrophages M1 were added on coated plate for 48 h, and CCR7 expression at the surface of the macrophages was measured by flow cytometry.
FIG. 35—Inhibition of CCR7 expression on M1 macrophages cells in vitro with anti-ChemR23 antibody coated. The humanized 2G1 variant HEF-LD-T52S was immobilized on plate. Isotype control were added as controls. Pro-inflammatory macrophages M1 were added on coated plate, and CCR7 expression at the surface of the macrophages was measured by flow cytometry.
MATERIAL AND METHODS. […]
RESULTS. […] Pro-inflammatory macrophages M1 were added on coated plate for 48 h, and CCR7 expression at the surface of the macrophages was measured by flow cytometry.
The humanized 2G1 variant HEF-LD-T52S was immobilized on plate. […] Pro-inflammatory macrophages M1 were added on coated plate for 48 h, and CCR7 expression at the surface of the macrophages was measured by flow cytometry. […]

B1: 2G1: parental chimeric anti-CMKLR1 antibody: heavy chain variable domain SEQ ID No. 37, light chain variable domain SEQ ID No. 49 (antibody, V domains shown)
VH: EVQLVASGGGLVQPGGSLKLSCAASGFTFSSYGMSWVRQTPDRRLELVATINRYGGSTYYPDSVKGRFTISRDNAKNTLYLQMSSLKSEDTAMYYCPRLIYYGNEGDSWGQGTTLTVSS
VL: QIVLTQSPAIMSASPGEKVTMTCSASSSVSFMHWYQQKSGTSPKRWIYDTTKLTSGVPARFSGSGSGTFYSLTISSMEAEDAATYYCQQWNSKPPLTFGPGTKLELKR
[1]; after Aldara administration, e.g. day 15, FIG. 6A
  thickness of the skin: reduces the thickness of the skin
[1]; mouse, in vivo
  weight of the animals: not impacted
4T1 cells; 10 μg/injection at day 4 and day 7, vs isotype control, FIG. 8A
  tumor growth (tumor area): did not show any improvement
4T1 cells; 0.8 mg/kg three times a week for three weeks, vs control antibody, FIG. 8B
  lung metastasis by bioluminescence imaging: reduces the lung metastasis
4T1 cells; two animals in the control have metastasis, data not shown
  lymph node metastasis: no animals treated with the anti-CMKLR1 compound has metastasis
[2]
  Chemerin-induced inhibition of forskolin-dependent cAMP production: could not revert this inhibition of production
[3]
  expression of CCR7 at the surface of pro-inflammatory macrophages (M1): able to decrease expression of CCR7
